Common to all, as to assay: flow cytometry on cells
In assay [1] the target is Mamu-KIR3DL05*003 (rhesus macaque).
The target in assay [2] is Mamu-KIR3DL05*010 (rhesus macaque).
Assay [3] addresses Mamu-KIR3DL05*005 (rhesus macaque).
Assay [4] concerns the target Mamu-KIR3DL05*008 (rhesus macaque).
In assay [5] the target is Mamu-KIR3DL05*001 (rhesus macaque).
The target in assay [6] is Mamu-KIR3DL05*004 (rhesus macaque).

As to “Mamu-A1*00201 tetramer folded with SIV Env_(788-795) RY8 (from UniProt P61769 21-119) (peptide-MHC)”, the MFI of tetramer staining divided by MFI of HA staining turned out to be 0.06 in assay [1], 0.07 in assay [2], 0.03 in assay [3] and 0.07 in assay [4].

Turning to “Mamu-A1*00201 tetramer folded with SIV Gag_(71-79) GY9 (from UniProt P61769 21-119) (peptide-MHC)”, the MFI of tetramer staining divided by MFI of HA staining in assay [1] is 1.57; in assay [2], 1.55; in assay [5], 0.02; in assay [6] it was 1.99; in assay [3], 0.55; in assay [4] it was 1.49.

For “Mamu-A1*00201 tetramer folded with SIV Nef_(159-167) YY9 (from UniProt P61769 21-119) (peptide-MHC)”, the MFI of tetramer staining divided by MFI of HA staining turned out to be 0.03 in assay [1]; 0.03 in assay [2]; 0.13 in assay [6]; 0.01 in assay [3]; 0.03 in assay [4].

The values are drawn from publication PMC3053351.
